Source: patent US20250313627A1 (FUSE BIOTHERAPEUTICS, published 2025)

Molecular target: T1, human ROR1 (Receptor Tyrosine Kinase-Like Orphan Receptor 1) on the cell surface (human, UniProt Q01973 30-937)
T1 construct: whole, on cells; engineered into B16-F10 (high density) and LS174T (low density) cells; also called B16-F10-ROR1-H; LS174T-ROR1-L
Test: flow cytometry, LS174T cells expressing human ROR1 (low density)
Description: As shown in the tables below, mouse B16-F10 melanoma (Tables 9A-9F) or LS174T human colorectal adenocarcinoma (Tables 9G-9H) cells genetically engineered to express human ROR1 at high and low densities, respectively, were stained for flow cytometric analysis with 100 nM of humanized variants of the ROR1 specific VHHs, 5A1 or 2A11 in either a VHH-Fc format or the Ac13 format shown in FIG. 1. Cells were analyzed on a flow cytometer after the primary test article was fluorescently tagged with a goat anti human IgG-Fc specific PE secondary antibody. The positive control used was PE conjugated anti-human ROR1 clone 2A2. Negative controls included a PE labeled mouse IgG Ab, the secondary antibody only, the combination of a Hen Egg Lysozyme (HEL) specific antibody plus goat anti human IgG-Fc specific PE and Fluorescence Minus One (FMO). Other controls included the non-humanized version of 5A1-Fc (FUSE179), 2A11-Fc (FUSE112) and 5A1-Ac13 (FUSE488). Humanized variants were generated using computational design (FUSE489, FUSE497-498, FUSE563, FUSE569-570, and BI-HU9-VHH11-33), a yeast display library in which mutations were inserted into the Vernier zone residues of human framework indicated in GenBank accession number M99660 (FUSE524-525, FUSE589, FUSE597-598, FUSE537, FUSE661-662, BI-HU9-HK and BI-HU9-HK-1), and a second yeast display library in which mutations were inserted into the Vernier zone residues of human framework indicated in GenBank accession number AWH66715 and amino acid position 103 within CDR3 (FUSE559, FUSE590-596, BI-HU9-VH9-1, FUSE654-655 and FUSE661-662. Affinity matured variants of FUSE559 were also generated using computational design (F22158101-21; Table 9H).

T1 sequence (Q01973 30-937): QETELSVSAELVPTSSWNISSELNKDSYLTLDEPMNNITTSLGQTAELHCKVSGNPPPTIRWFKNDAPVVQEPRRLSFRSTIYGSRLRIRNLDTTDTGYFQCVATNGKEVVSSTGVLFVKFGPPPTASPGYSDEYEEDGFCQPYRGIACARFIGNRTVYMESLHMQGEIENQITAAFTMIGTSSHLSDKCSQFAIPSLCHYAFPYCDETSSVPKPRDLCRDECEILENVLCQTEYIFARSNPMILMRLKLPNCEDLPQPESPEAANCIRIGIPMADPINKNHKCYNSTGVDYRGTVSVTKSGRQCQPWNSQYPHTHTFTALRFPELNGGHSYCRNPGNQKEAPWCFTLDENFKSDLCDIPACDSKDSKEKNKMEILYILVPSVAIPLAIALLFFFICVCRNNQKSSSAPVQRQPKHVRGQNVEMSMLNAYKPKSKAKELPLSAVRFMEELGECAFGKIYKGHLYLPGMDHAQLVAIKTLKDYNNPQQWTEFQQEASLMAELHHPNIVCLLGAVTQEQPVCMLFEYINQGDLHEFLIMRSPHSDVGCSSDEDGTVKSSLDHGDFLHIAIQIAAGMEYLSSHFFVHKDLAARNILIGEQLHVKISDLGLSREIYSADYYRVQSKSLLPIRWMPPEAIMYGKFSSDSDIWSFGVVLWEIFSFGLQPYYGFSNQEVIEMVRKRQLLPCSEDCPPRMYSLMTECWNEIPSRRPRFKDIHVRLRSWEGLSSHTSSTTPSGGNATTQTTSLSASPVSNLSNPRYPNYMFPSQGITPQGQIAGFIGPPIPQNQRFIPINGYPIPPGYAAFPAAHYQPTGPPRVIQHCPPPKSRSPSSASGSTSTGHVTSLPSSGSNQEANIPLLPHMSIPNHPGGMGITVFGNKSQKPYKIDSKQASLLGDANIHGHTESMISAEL

MFI	Binder
18700	F221581010 (h5A1-BI-010 Fc) (Fc fusion, VHH-Fc format; also called F22158110; not shown: Fc of the VHH-Fc format) EVQLLESGGGLVQPGGSLRLSCAASGYTNRLKCMGWFRQAPGKEREEVASISTGTGNTYYADSVKGRFTISQDKSKNTLYLQMNSLKAEDTAVYYCAADVRPDGRTCHYNKRGQGTLVTVSS
35000	F22158109 (h5A1-BI-009 Fc) (Fc fusion, VHH-Fc format; not shown: Fc of the VHH-Fc format) EVQLLESGGGLVQPGGSLRLSCAASGYTNRIKCMGWFRQAPGKEREEVASISTGTGNSYYADSVKGRFTISQDKSKNTLYLQMNSLKAEDTAVYYCAADVRPDGRTCHYNKRGQGTLVTVSS
25100	F22158108 (h5A1-BI-008 Fc) (Fc fusion, VHH-Fc format; not shown: Fc of the VHH-Fc format) EVQLLESGGGLVQPGGSLRLSCAASGYTNRIKCMGWFRQAPGKEREEVASISTGTGNAYYADSVKGRFTISQDKSKNTLYLQMNSLKAEDTAVYYCAADVRPDGRTCHYNSRGQGTLVTVSS
23800	F221581013 (h5A1-BI-013 Fc) (Fc fusion, VHH-Fc format; also called F22158113; not shown: Fc of the VHH-Fc format) EVQLLESGGGLVQPGGSLRLSCAASGYTNRLKCMGWFRQAPGKEREEVASISTGTGNTYYADSVKGRFTISQDKSKNTLYLQMNSLKAEDTAVYYCAADVRPFGTTCHYNKRGQGTLVTVSS
14200	F221581012 (h5A1-BI-012 Fc) (Fc fusion, VHH-Fc format; also called F22158112; not shown: Fc of the VHH-Fc format) EVQLLESGGGLVQPGGSLRLSCAASGYTNRLKCMGWFRQAPGKEREEVASISTGTGNTYYADSVKGRFTISQDKSKNTLYLQMNSLKAEDTAVYYCAADVRPFGRTCHYNSRGQGTLVTVSS
19400	F221581011 (h5A1-BI-011 Fc) (Fc fusion, VHH-Fc format; also called F22158111; not shown: Fc of the VHH-Fc format) EVQLLESGGGLVQPGGSLRLSCAASGYTNRIKCMGWFRQAPGKEREEVASISTGTGNTYYADSVKGRFTISQDKSKNTLYLQMNSLKAEDTAVYYCAADVRPFGTTCHYNSRGQGTLVTVSS

More lines, now with the values behind:

Binder	MFI
F22158101 (h5A1-BI-001 Fc) (Fc fusion, VHH-Fc format; not shown: Fc of the VHH-Fc format) EVQLLESGGGLVQPGGSLRLSCAASGYTNRIKCMGWFRQAPGKEREEVASISTGTGNTYYADSVKGRFTISQDKSKNTLYLQMNSLKAEDTAVYYCAADVRPDGFTCHYNSRGQGTLVTVSS	19700
F22158105 (h5A1-BI-005 Fc) (Fc fusion, VHH-Fc format; not shown: Fc of the VHH-Fc format) EVQLLESGGGLVQPGGSLRLSCAASGYTNRLKCMGWFRQAPGKEREEVASISTGTGNTYYADSVKGRFTISQDKSKNTLYLQMNSLKAEDTAVYYCAADVRPDGFTCHYNKRGQGTLVTVSS	22300
F22158107 (h5A1-BI-007 Fc) (Fc fusion, VHH-Fc format; not shown: Fc of the VHH-Fc format) EVQLLESGGGLVQPGGSLRLSCAASGYTNRLKCMGWFRQAPGKEREEVASISTGTGNAYYADSVKGRFTISQDKSKNTLYLQMNSLKAEDTAVYYCAADVRPDGRTCHYNSRGQGTLVTVSS	11500
F22158106 (h5A1-BI-006 Fc) (Fc fusion, VHH-Fc format; not shown: Fc of the VHH-Fc format) EVQLLESGGGLVQPGGSLRLSCAASGYTNRIKCMGWFRQAPGKEREEVASISTGTGNTYYADSVKGRFTISQDKSKNTLYLQMNSLKAEDTAVYYCAADVRPDGRTCHYNSRGQGTLVTVSS	17400
F22158103 (h5A1-BI-003 Fc) (Fc fusion, VHH-Fc format; not shown: Fc of the VHH-Fc format) EVQLLESGGGLVQPGGSLRLSCAASGYTNRLKCMGWFRQAPGKEREEVASISTGTGNAYYADSVKGRFTISQDKSKNTLYLQMNSLKAEDTAVYYCAADVRPDGTTCHYNKRGQGTLVTVSS	15800
F22158102 (h5A1-BI-002 Fc) (Fc fusion, VHH-Fc format; not shown: Fc of the VHH-Fc format) EVQLLESGGGLVQPGGSLRLSCAASGYTNRIKCMGWFRQAPGKEREEVASISTGTGNTYYADSVKGRFTISQDKSKNTLYLQMNSLKAEDTAVYYCAADVRPDGTTCHYNKRGQGTLVTVSS	20500
F22158104 (h5A1-BI-004 Fc) (Fc fusion, VHH-Fc format; not shown: Fc of the VHH-Fc format) EVQLLESGGGLVQPGGSLRLSCAASGYTNRIKCMGWFRQAPGKEREEVASISTGTGNAYYADSVKGRFTISQDKSKNTLYLQMNSLKAEDTAVYYCAADVRPDGTTCHYNKRGQGTLVTVSS	28900
